From patent US20240409645A1 (DUALYX, published 2024)

T1: mouse common cytokine receptor γ-chain (IL-2Rγ) (mouse, UniProt P34902 23-263, limits assumed)
T1 construct: Recombinant mouse IL-2Rγ protein; also called mo IL-2R; mouse IL-2R gamma
T1 sequence (looked up): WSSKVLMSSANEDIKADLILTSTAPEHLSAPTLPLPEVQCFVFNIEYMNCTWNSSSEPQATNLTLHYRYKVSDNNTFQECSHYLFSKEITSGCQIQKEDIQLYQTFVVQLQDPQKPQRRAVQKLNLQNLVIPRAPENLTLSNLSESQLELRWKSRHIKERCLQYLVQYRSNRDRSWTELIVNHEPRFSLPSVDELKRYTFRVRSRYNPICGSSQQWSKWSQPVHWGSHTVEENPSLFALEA

T2: human common cytokine receptor γ-chain (IL-2Rγ) (human, UniProt P31785 23-262, limits assumed)
T2 construct: Recombinant human IL-2Rγ protein, coated (ELISA) or amine-coupled to a CM5 chip (SPR); also called hu IL-2R; CD132
T2 sequence: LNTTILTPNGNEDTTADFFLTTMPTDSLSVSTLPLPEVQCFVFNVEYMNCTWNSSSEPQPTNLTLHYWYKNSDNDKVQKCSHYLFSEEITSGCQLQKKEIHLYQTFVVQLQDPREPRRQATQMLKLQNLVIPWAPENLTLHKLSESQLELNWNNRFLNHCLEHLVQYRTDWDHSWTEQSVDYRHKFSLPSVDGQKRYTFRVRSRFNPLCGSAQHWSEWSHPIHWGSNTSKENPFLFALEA


Columns and labels:
[1] = target: T1, mouse common cytokine receptor γ-chain …; assay: P.E. off-rate SPR
Description: (§1) SPR was performed to determine dissociation rates using Biacore 3000 instrument (GE Healthcare). Briefly, human and mouse IL-2R proteins were immobilized on carboxylmethyl dextran sensor chip (CM5) at approximately 2500 RUs using amine coupling in acetate buffer (GE Healthcare). The VHH-containing P.E. were loaded with a flow rate of 30 uL/min and the off-rates were measured over a 120s period.

[2] = target: T2, human common cytokine receptor γ-chain …; assay: P.E. off-rate SPR
Description: as §1

[3] = target: T1, mouse common cytokine receptor γ-chain …; assay: P.E. binding ELISA
Description: (§2) In a binding ELISA, human or mouse IL-2Rα, IL-2Rβ and IL-2Rγ proteins were coated directly on maxisorp microtiter plates overnight at 4° C. Free binding sites were blocked using 4% Marvel in PBS for 1 hour. Next, 1:5 dilution of P.E. in 1% Marvel/PBS were added to wells and incubated for 1 hour. […] Binding specificity was determined based on O.D. at 450 nm values compared to negative controls.

[4] = target: T2, human common cytokine receptor γ-chain …; assay: P.E. binding ELISA
Description: as §2

| koff [1] [s⁻¹] | koff [2] [s⁻¹] | PE binding ELISA OD [3] [OD450 nm] | PE binding ELISA OD [4] [OD450 nm] | Binder |
| --- | --- | --- | --- | --- |
| 0.0127 | 0.00168 | 0.082 | 1.27 | FJ1427_P035MP07B09 (VHH, tested as periplasmic extract; also called Clone nr) VHH: QVQLVESGGGLVQAGGSLRLSCAASGRALSRLAMGWFRQAPGKEREFVVASSWGDDTFYADSVKGRFTFSRDNAKNTVYLQMNSLQPGDTAVYYCAAAPTSFATTAYSSSNSYAYWGQGTQVTVSS |
| 0.00703 | 0.00137 | 0.755 | 0.723 | FJ1427_P035MP07C09 (VHH, tested as periplasmic extract; also called Clone nr; 643) VHH: QVQLVESGGGLVQAGGSLRLSCAASGRTLSRYAMGWFRQAPGKEREYVAIDSWGGDTFYADSVEGRFTFSRDNAKNEVYLQMNSLQPEDTAVYYCAGAPTSFATTAYSSSNSYRYWGQGTQVTVSS |
| 0.0127 | 0.00152 | 0.057 | 0.599 | FJ1427_P035MP07D02 (VHH, tested as periplasmic extract; also called Clone nr; 588) VHH: QVQLQESGGGLVQAGGSLRLSCAASGRALSRLAMGWFRQAPGKEREFVVASSWGDDTFYADSVKGRFTFSRDNAKNTVYLQMNSLQPGDTAVYYCAAAPTSFATTAYSSSNSYAYWGQGTQVTVSS |
| 0.103 | 0.00259 | 0.046 | 0.729 | FJ1427_P035MP07E04 (VHH, tested as periplasmic extract; also called Clone nr; 605) VHH: QVQLVESGGGLVQAGDSLRLSCEASGRTLSRYAMGWFRQAPGKEREFVTANSWGGDTYYADSVQGRFTFSRDNAKNTVYLQMNSLQPEDTAVYYCAAAPTSFATTAYSSSNSYAYWGQGTQVTVSS |
| 0.00694 | 0.00113 | 0.923 | 0.945 | FJ1427_P035MP07C01 (VHH, tested as periplasmic extract; also called Clone nr) VHH: QVQLVESGGGLVQAGDSLRLSCVASGRTLSRCAMGWFRKAPGKEREYVAISSWGGDTFYEDSVEGRFTFSRDNAKNTVYLQMNSLRPEDTAVYYCAAAPTSFATTAYSSSNSYAYWGQGTQVTVSS |
| 0.113 | 0.00294 | 0.051 | 1.19 | FJ1427_P035MP07D01 (VHH, tested as periplasmic extract; also called Clone nr; 580) VHH: QVQLVESGGGLVQAGGSLRLSCAASGRTLSRYAMGWFRQAPGKEREFVAANSWGGDTYYTDSVEGRFTFSRDNAKNAVYLQMNSLQPGDTAVYYCAAAPTSFATTAYSSSNSYSYWGQGTQVTVSS |
| 0.0132 | 0.00156 | 0.139 | 0.83 | FJ1427_P035MP07E01 (VHH, tested as periplasmic extract; also called Clone nr) VHH: QVQLQESGGGLVQAGGSLRLSCAASGRTLSRYAMGWFRQAPGKEREFVACDSWGGDTFYADSVEGRFTFSRDNAKNATYLQMNSLQPEDTAVYYCAGAPTSFATTAYSSSNSYTVWGQGTQVTVSL |
| 0.126 | 0.00288 | 0.045 | 0.919 | FJ1427_P035MP07D06 (VHH, tested as periplasmic extract; also called Clone nr; 620) VHH: EVQLVESGGGLVQAGGSLRLSCAASGRTLSRYAMGWFRQAPGKEREFVTANSWGGDTYYADSVQGRFTFSRDNAKNTVYLQMNSLQPEDTAVYYCAAAPTSFATTAYSSSNSYAYWGQGTQVTVSS |
| 0.0114 | 0.00214 | 0.246 | 1.25 | FJ1427_P035MP07B11 (VHH, tested as periplasmic extract; also called Clone nr) VHH: QVQLVESGGGLVQAGGSLRLSCAASGRALSRLAMGWFRQAPGKEREFVVASSWGDDTFYADSVEGRFTFSRDNAKSTVYLQMNSLQPGDTAVYYCAAAPTSFATTAYSSSNSYAYWGQGTQVTVPS |
| 0.125 | 0.003 | 0.048 | 0.734 | FJ1427_P035MP07D10 (VHH, tested as periplasmic extract; also called Clone nr) VHH: QVQLVESGGGLVQAGGSLRLSCAASGRTLSRYAMGWFRQAPGKEREFVAADSWGGDTYYDDSVEGRFTFSRDIAKNAVYLQMNSLQPEDTAVYYCAAAPTSFATTAYSSSNSYAYWGQGTQVTVSS |
| 0.0991 | 0.00263 | 0.05 | 1.03 | FJ1427_P035MP07D08 (VHH, tested as periplasmic extract; also called Clone nr) VHH: QLQLVESGGGLVQAGGSLRLSCAASGRTLSRYAMGWFRQAPGKEREFVTANSWGGDTYYADSVQGRFTFSRDNAKNTVYLQMNSLQPEDTAVYYCAAAPTSFATTAYSSSNSYAYWGQGTQVTVSS |
| 0.0132 | 0.00206 | 0.061 | 0.62 | FJ1427_P035MP07E02 (VHH, tested as periplasmic extract; also called Clone nr) VHH: QVQLVESGGGLVQAGGSLRLSCAASGRALSRLAMGWFRQAPGKEREFVVASSWGDDTFYADSVKGRFTFSRDNAKNTVYLQMNSLQPGDTAVYYCAAAPTSFATTAYSSSNSYAYWGQGTQVTVSS |
| 0.0609 | 0.00153 | 0.054 | 0.733 | FJ1427_P035MP07D05 (VHH, tested as periplasmic extract; also called Clone nr) VHH: QVQLVESGGGLVQAGGSLRLSCAASGRTLSRNAMGWFRQAPGKEREFVAADSWGGDTFYADSVEGRFTFSRDNAKNAVYLQMNSLQPEDTAVYYCAGAPTSFATTAYSSSNSYRYWGQGTQVTVSS |
| 0.0128 | 0.00182 | 0.047 | 0.479 | FJ1427_P035MP07C05 (VHH, tested as periplasmic extract; also called Clone nr; 611) VHH: EVQLVESGGGLVQPGGSLRLSCAASGRALSRLAMGWFRQAPGKEREFVVASSWGDDTFYADSVKGRFTFSRDNAKNTVYLQMNSLQPGDTAVYYCAAAPTSFATTAYSSSNSYAYWGQGTQVTVSS |
| 0.111 | 0.00279 | 0.045 | 0.319 | FJ1427_P035MP07C06 (VHH, tested as periplasmic extract; also called Clone nr) VHH: QVQLVESGGGLVQAGGSLRLSCAASGRTLSRYAMGWFRQAPGKEREFVTANSWGGDTYYADSVQGRFTFSRDNAENTVYLQMNSLQPEDTAVYYCAAAPTSFATTAYSSSNSYAYWGQGTQVTVSS |
| 0.114 | 0.00353 | 0.046 | 0.982 | FJ1427_P035MP07C03 (VHH, tested as periplasmic extract; also called Clone nr) VHH: EVQLVESGGGLVQAGGSLRLSCAASGRTLSRYAMGWFRQAPGKEREFVTANSWGGDTYYADSVQGRFTFSRDNAKNTVYLQMNSLQPEDTAVYYCAAAPTSFATTAYSSSNSYAYWGQGTQVTVSS |
| 0.0501 | 0.00175 | 0.059 | 0.716 | FJ1427_P035MP07B10 (VHH, tested as periplasmic extract; also called Clone nr; 650) VHH: QVQLVESGGGLVQAGGSLRLSCAASGRTLSRYAMGWFRQAPGKEREFVAADSWGGDTFYADSVEGRFTFSRDNAKNAAYLQMNSLQPEDTATYYCAGAPTSFATTAYSSSNSYRYWGQGTQVTVSS |
| 0.12 | 0.00372 | 0.045 | 0.434 | FJ1427_P035MP07E05 (VHH, tested as periplasmic extract; also called Clone nr) VHH: EVQLVESGGGLVQAGGSLRLSCAASGRTLSRYAMGWFRQAPGKEREFVTANSWGGDTYYADSVQGRFTFSRDNAKNTVYLQMNSLQPEDTAVYYCAAAPTSFATTAYSSSNSYAYWGQGTQVTVSS |
| 0.126 | 0.00447 | 0.045 | 0.865 | FJ1427_P035MP07D09 (VHH, tested as periplasmic extract; also called Clone nr) VHH: EVQLVESGGGLVQAGGSLRLSCAASGRTLSRYAMGWFRQAPGKEREFVTANSWGGDTYYADSVQGRFTFSRDNAKNTVYLQMNSLQPEDTAVYYCAAAPTSFATTAYSSSNSYAYWGQGTQVTVSS |
